# The supplement of paper PMC9112550, “Optimization of the antimicrobial peptide Bac7 by deep mutational scanning” (BMC Biology, 2022)
# System: Escherichia coli TOP10
# Experiment: shrunken log2 fold change of peptide-encoding DNA abundance (4.5 h post-induction vs induction); higher = less antimicrobial activity (less host growth inhibition)
# Details: time post-induction: 4.5 h; library: site-saturation at positions 5, 18, 19, 20
# 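Further: peptides expressed intracellularly from a pBAD plasmid library in pooled LB shake-flask culture, induced with 0.3% L-arabinose, DNA abundance read by NGS, three biological replicates, DESeq2 with apeglm shrinkage.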
row,Sequence,shrunken log2 fold change
1,RRIRARPPRLPRPRPRPHYNPRP,-0.467
2,RRIRFRPPRLPRPRPRPGMDPRP,-0.25
3,RRIRERPPRLPRPRPRPCVRPRP,-0.447
4,RRIRERPPRLPRPRPRPNNMPRP,-0.713
5,RRIRYRPPRLPRPRPRPSGQPRP,-0.000925
6,RRIRIRPPRLPRPRPRPSREPRP,-0.0977
7,RRIRGRPPRLPRPRPRPPTRPRP,1
8,RRIRTRPPRLPRPRPRPDAQPRP,0.193
9,RRIRHRPPRLPRPRPRPFTRPRP,-0.132
10,RRIRSRPPRLPRPRPRPKRIPRP,-0.275
11,RRIRKRPPRLPRPRPRPPMVPRP,0.296
12,RRIRVRPPRLPRPRPRPDPKPRP,0.203
13,RRIRNRPPRLPRPRPRPRLGPRP,0.187
14,RRIRFRPPRLPRPRPRPHMRPRP,-0.0696
15,RRIRFRPPRLPRPRPRPYCDPRP,-0.535
16,RRIRNRPPRLPRPRPRPHSGPRP,-0.517
17,RRIRVRPPRLPRPRPRPFVGPRP,-0.0757
18,RRIRQRPPRLPRPRPRPDIYPRP,-0.284
19,RRIRMRPPRLPRPRPRPIILPRP,-0.0572
20,RRIRERPPRLPRPRPRPMTPPRP,-0.0365
21,RRIRMRPPRLPRPRPRPKDCPRP,-0.0772
22,RRIRQRPPRLPRPRPRPIYDPRP,-0.213
23,RRIRIRPPRLPRPRPRPITEPRP,-1.09
24,RRIRNRPPRLPRPRPRPKMRPRP,0.313
25,RRIRGRPPRLPRPRPRPAGVPRP,0.742

row,Sequence,shrunken log2 fold change
1,RRIRERPPRLPRPRPRPKRQPRP,-0.0958
2,RRIRYRPPRLPRPRPRPTRIPRP,-0.0491
3,RRIRDRPPRLPRPRPRPMEFPRP,-0.0018
4,RRIRYRPPRLPRPRPRPARSPRP,0.134
5,RRIRMRPPRLPRPRPRPIWHPRP,-0.0798
6,RRIRHRPPRLPRPRPRPKWYPRP,-0.462
7,RRIRARPPRLPRPRPRPLTCPRP,-0.248
8,RRIRMRPPRLPRPRPRPTFIPRP,-0.027
9,RRIRPRPPRLPRPRPRPITFPRP,-0.112
10,RRIRLRPPRLPRPRPRPRMLPRP,-0.0478
11,RRIRSRPPRLPRPRPRPRQPPRP,0.268
12,RRIRYRPPRLPRPRPRPIYRPRP,-0.641
13,RRIRSRPPRLPRPRPRPFHRPRP,-0.154
14,RRIRERPPRLPRPRPRPCVKPRP,-0.00643
15,RRIRKRPPRLPRPRPRPPKEPRP,0.944
16,RRIRVRPPRLPRPRPRPHFMPRP,1.55
17,RRIRCRPPRLPRPRPRPNAKPRP,0.0347
18,RRIRTRPPRLPRPRPRPFHQPRP,-0.126
19,RRIRGRPPRLPRPRPRPEGKPRP,0.574
20,RRIRIRPPRLPRPRPRPFSYPRP,3.51
21,RRIRARPPRLPRPRPRPSYYPRP,-0.731
22,RRIRLRPPRLPRPRPRPLMKPRP,0.0215
23,RRIRQRPPRLPRPRPRPIEDPRP,-0.126
24,RRIRSRPPRLPRPRPRPMIIPRP,-0.182
25,RRIRVRPPRLPRPRPRPLQTPRP,0.158

row,Sequence,shrunken log2 fold change
1,RRIRDRPPRLPRPRPRPELTPRP,0.167
2,RRIRPRPPRLPRPRPRPKQSPRP,0.142
3,RRIRGRPPRLPRPRPRPRAAPRP,1.53
4,RRIRVRPPRLPRPRPRPWYYPRP,0.0171
5,RRIRARPPRLPRPRPRPGATPRP,0.959
6,RRIRARPPRLPRPRPRPSLMPRP,0.0307
7,RRIRGRPPRLPRPRPRPQWKPRP,0.113
8,RRIRSRPPRLPRPRPRPCDMPRP,-0.184
9,RRIRHRPPRLPRPRPRPTYEPRP,0.15
10,RRIRYRPPRLPRPRPRPLMQPRP,-0.283
11,RRIRGRPPRLPRPRPRPMEHPRP,0.171
12,RRIRHRPPRLPRPRPRPIKSPRP,-0.0206
13,RRIRSRPPRLPRPRPRPDTYPRP,-0.713
14,RRIRGRPPRLPRPRPRPFIHPRP,0.0282
15,RRIRTRPPRLPRPRPRPWGDPRP,-0.273
16,RRIRARPPRLPRPRPRPQGHPRP,0.273
17,RRIRARPPRLPRPRPRPTCDPRP,0.534
18,RRIRVRPPRLPRPRPRPTSLPRP,-0.262
19,RRIRKRPPRLPRPRPRPDPEPRP,-0.0797
20,RRIRRRPPRLPRPRPRPIFAPRP,0.355
21,RRIRERPPRLPRPRPRPSKSPRP,-0.688
22,RRIRERPPRLPRPRPRPFHTPRP,-0.0574
23,RRIRCRPPRLPRPRPRPLYWPRP,-0.201
24,RRIRHRPPRLPRPRPRPALHPRP,0.111
25,RRIRVRPPRLPRPRPRPTGPPRP,0.164
